Laboratory results: US20190160152A1 (OPKO BIOLOGICS LTD., priority 2016, published 2019)
“Also recorded” adds a separate entry of the source. Read-outs that look alike come from different tables or passages of the source.

Assays:
[1] = IP glucose tolerance test (IPGTT model); type: in vivo, C57BL/6 male mice; details: for AUC (0-180) / AUC (−60-180): blood glucose, 100 nmol/kg peptide content IP 15 min prior to glucose 1.5 gr/kg IP; for % AUC from control, AUC (0-180) / % AUC from control, AUC (−60-180): control PEG-SH, 100 nmol/kg peptide content IP
[2] = ob/ob mouse model Study 1: PEG30-S-MAL-FMS-OXM variants at 2000 nmol/kg; type: in vivo, male ob/ob mice; details: 2000 nmol/kg sc; for final reduction of body weight (on day 18) compared to vehicle (PEG-SH) group: days 1, 5, 9, 13 and 16
Procedure: Terminal samples on day 19 were analyzed for cholesterol.

[3] = ob/ob mouse model Study 2: chronic MOD-6031, OXM, liraglutide pharmacology; type: in vivo, male ob/ob mice
Procedure: Body weight, food and water intake were recorded daily. […] Body weight, food and water intake were measured daily.

[4] = ob/ob mouse model Study 3: MOD-6031 vs PEG30-Fmoc-OXM vs PEG30-EMCS-OXM; type: in vivo, male ob/ob mice; details: for terminal plasma lipidic profiles and fructosamine (in words) / glucose profile, Day 30 OGTT (in words) / glucose tolerance, day 2 OGTT (in words): 6000 nmol/kg; for terminal plasma lipidic profiles and fructosamine (in words): day 33; for glucose profile, Day 30 OGTT (in words) / glucose tolerance, day 2 OGTT (in words): glucose 2 g/kg po
Procedure: Forty-two male ob/ob mice (7 weeks of age, Charles River, Italy) were acclimatized to the facility (10 days) followed by handling protocol whereby animals were handled as if to be dosed but were actually not weighed or dosed. Subsequently, animals underwent baseline period for 1 week in which each animal have been dosed twice by the subcutaneous route with PEG30-SH in volume of 20 ml/kg. Body weight, food and water intake were recorded daily, and samples were taken for non-fasting and fasting glucose measurements and non-fasting and fasting insulin measurements. Animals were subsequently allocated into three treatment, control and pair-fed groups (group A, N=10, groups B-E, N=8) based on plasma glucose, body weight and daily food and water intake. […] It was given the daily food ration equal to that eaten by its paired counterpart in group B the previous day. As such, animals in Group E will be one day out of phase with Group B in all study procedures and measurements. During the study, animals were dosed every four days (days: 1, 5, 9, 13, 17, 21, 25 and 29) as describes in table 3. […] Several procedures and sampling have been performed: non-fasting glucose on days 1, 6, 14, 22 and 29, fasting glucose on days 10, 18 and 26. On days 2 and 30 fasting glucose samples have been taken as part of an OGTT procedure, in which insulin was measured in parallel to glucose. Terminal samples on day 33 were analyzed for cholesterol, triglycerides and fructosamine.

[5] = Hydrolysis rate of MOD-6031 in phosphate buffer at different pH; type: physicochemical
[6] = Ex-vivo hydrolysis rate of MOD-6031 in rat plasma; type: in vitro ADME
Procedure: (§1) After evaporation to dryness and reconstitution, the extracts were analysed by LC-MS/MS. […] Incubation at temperatures of 35° C., 37° C. and 41° C. was examined in rat plasma. […] For human plasma, both pooled and individual samples were measured using plasma derived from male and female subjects. […] The hydrolysis was stopped at the designated time point by freezing the sample at −70° C. […] For each condition, three independent samples were prepared. Samples were incubated at a given temperature of either 35° C., 37° C. or 41° C. All samples were stored at −70° C. prior to analysis. […] Temperature, wherein hydrolysis was tested at temperatures of 35° C., 37° C., and 41° C.; and • c. Plasma source, wherein hydrolysis was tested in plasma samples obtained from rat, cynomolgus monkeys and human. For human plasma, both pooled and individual samples were used, and hydrolysis rates were measured separately for plasma from males and females. […] At designated time points, samples were taken for LC-MS/MS analysis.

[7] = Ex-vivo hydrolysis rate of MOD-6031 in cynomolgus monkey plasma; type: in vitro ADME
Procedure: as §1

[8] = Ex-vivo hydrolysis rate of MOD-6031 in human plasma; type: in vitro ADME
Procedure: as §1

[9] = Viscosity analysis (Brookfield rheometer); type: physicochemical
Procedure: Viscosity was measured with a Brookfield rheometer (DV-III Ultra). For each formulation, viscosity was obtained from the average of five shear rate (Sec^−1) readouts (15.0, 30.0, 45.0, 60.0 and 75.0) at a controlled temperature of 25° C. Processing of the data was done using Rheocalc® software (Brookfield).
Conditions included concentration, buffer type, pH, and NaCl. Buffers were formed by interaction of base part of the buffer and the trifluoro acetic acid (TFA) that co-eluted with the […] (DS). […]

[10] = mouse, in vivo, sc
[11] = biological target: T1, dipeptidyl peptidase IV (DPPIV) (Homo sapiens, UniProt P27487); assay: DPPIV digestion assay by RP-HPLC; details: pH = 6
T1 sequence (P27487 whole entry, species assumed): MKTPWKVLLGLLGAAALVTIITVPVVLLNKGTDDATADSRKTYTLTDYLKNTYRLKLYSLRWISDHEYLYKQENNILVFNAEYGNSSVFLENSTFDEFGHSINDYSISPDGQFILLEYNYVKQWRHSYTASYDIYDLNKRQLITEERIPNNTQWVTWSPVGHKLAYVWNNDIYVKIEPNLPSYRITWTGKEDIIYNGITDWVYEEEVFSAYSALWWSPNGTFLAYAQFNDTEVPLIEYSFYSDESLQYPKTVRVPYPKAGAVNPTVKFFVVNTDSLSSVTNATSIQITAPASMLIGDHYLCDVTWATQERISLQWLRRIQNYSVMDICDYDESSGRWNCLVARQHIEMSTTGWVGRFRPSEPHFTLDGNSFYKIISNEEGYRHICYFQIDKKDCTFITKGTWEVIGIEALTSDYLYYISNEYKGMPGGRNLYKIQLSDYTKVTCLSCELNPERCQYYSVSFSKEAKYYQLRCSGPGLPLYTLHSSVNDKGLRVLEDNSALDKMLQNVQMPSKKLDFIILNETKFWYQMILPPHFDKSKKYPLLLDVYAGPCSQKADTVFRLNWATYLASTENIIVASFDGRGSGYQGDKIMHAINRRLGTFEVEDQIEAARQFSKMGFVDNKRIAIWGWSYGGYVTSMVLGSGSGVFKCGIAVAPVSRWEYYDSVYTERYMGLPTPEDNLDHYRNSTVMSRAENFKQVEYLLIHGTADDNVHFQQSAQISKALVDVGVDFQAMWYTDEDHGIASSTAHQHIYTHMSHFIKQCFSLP

[12] = biological target: T1, dipeptidyl peptidase IV (DPPIV)
[13] = Syringability analysis (Instron, glide force); type: physicochemical; details: 25 Ga Needle; 9 in/min (16 sec)
Procedure: Syringeability was tested using an Instron instrument, model 5942. […] […] For each needle size, two speed rates were measured: 4.8 in/min and 9 in/min, which correspond to injection speeds of 1 ml per 30 sec and 16 sec, respectively.
In one case, acceptance criteria for syringability was set at <10 N (glide force). The results of syringability for two different formulations of an acetate based buffer and using three different gauge needles is presented in Table 29 below.

[14] = 6000 nmol/kg sc every four days
[15] = Monkey (lot# CYN128421) plasma 37° C.
[16] = Monkey (lot# CYN128423) plasma 37° C.
[17] = Human female (pool) plasma 37° C.
[18] = Human male (pool) plasma 37° C.

MOD-6030: heterogeneous mixture of PEG-S-MAL-FMS-OXM conjugate composed of three variants (N-terminal, Lys12 and Lys30) (HSQGTFTSDYSKYLDSRRAQDFVQWLMNTKRNRNNIA; Oxyntomodulin PEG30-S-MAL-FMS, mixed N-term/Lys12/Lys30; UniProt P01275 53-89, looked up)
AUC (0-180) [1]: 13541 | AUC (−60-180) [1]: 18200 | % AUC from control, AUC (0-180) [1]: 60.1% | % AUC from control, AUC (−60-180) [1]: 67.8% | final reduction of body weight (on day 18) compared to vehicle (PEG-SH) group [2]: 4.7%

MOD-6031
glucose tolerance (in words) ([1]; IPGTT, compared to vehicle PEG-SH): slightly less potent | AUC (0-180) [1]: 15781 | AUC (−60-180) [1]: 19891 | % AUC from control, AUC (0-180) [1]: 70.1% | % AUC from control, AUC (−60-180) [1]: 74.1% | ability to reduce weight, inhibit food intake and improve glycemic control (in words) [2]: superior efficacies | non-fasting glucose (in words) [2]: improvement of non-fasting glucose | final reduction of body weight (on day 18) compared to vehicle (PEG-SH) group [2]: 4.9% | body weight reduction at the conclusion of the study (day 33) ([3]; 1000 nmol/kg sc twice a week): 5.2% | body weight reduction at the conclusion of the study (day 33) ([3]; 3000 nmol/kg sc twice a week): 12.3% | body weight and food consumption (in words) ([3]; 3000 nmoles/kg twice a week): significantly reduced | body weight reduction at the conclusion of the study (day 33) ([3]; 6000 nmol/kg sc twice a week): 28.3% | food intake and body weight (in words) ([3]; 6000 nmol/kg twice a week): significantly reduced | glucose tolerance, OGTT days 2 and 30 (in words) ([3]; 1000, 3000 and 6000 nmoles/kg, glucose 2 g/kg po): significantly and dose-dependently improved | terminal cholesterol (in words) ([3]; day 33): dose-dependently reduced | terminal glucose (in words) ([3]; study termination, day 33): dose-dependently reduced | terminal plasma insulin (in words) ([3]; study termination, day 33): markedly reduced | Final reduction changes in body weight (on day 33) compared to control (PEG-SH) [4, 14]: 25.4% | fasting glucose (in words) [4, 14]: significant improvement | non-fasting glucose (in words) [4, 14]: significant improvement | terminal plasma lipidic profiles and fructosamine (in words) [4]: significant reduction | glucose profile, Day 30 OGTT (in words) [4]: significant improved glucose profile | glucose tolerance, day 2 OGTT (in words) [4]: significantly improved glucose tolerance | Cl/F_obs ([5]; Phosphate pH = 6.8): 0.061 (mg)/(μg/ml)/h | MRT0-∞ ([5]; Phosphate pH = 6.8): 47.4 h | Cl/F_obs ([5]; Phosphate pH = 7.4): 0.133 (mg)/(μg/ml)/h | MRT0-∞ ([5]; Phosphate pH = 7.4): 20.3 h | Cl/F_obs ([5]; Phosphate pH = 7.8): 0.227 (mg)/(μg/ml)/h | MRT0-∞ ([5]; Phosphate pH = 7.8): 10.7 h | Cl/F_obs ([6]; Table 10, Rat plasma 35° C.): 0.120 (mg)/(μg/ml)/h | MRT0-∞ ([6]; Table 10, Rat plasma 35° C.): 14.7 h | Cl/F_obs ([6]; Table 10, Rat plasma 37° C.): 0.129 (mg)/(μg/ml)/h | MRT0-∞ ([6]; Table 10, Rat plasma 37° C.): 14.7 h | Cl/F_obs ([6]; Table 10, Rat plasma 41° C.): 0.179 (mg)/(μg/ml)/h | MRT0-∞ ([6]; Table 10, Rat plasma 41° C.): 9.6 h | Cl/F_obs ([6]; Table 11, Rat plasma 37° C.): 0.056 (mg)/(μg/ml)/h | MRT0-∞ ([6]; Table 11, Rat plasma 37° C.): 13 h | hydrolysis rate, effect of temperature (in words) ([6]; rat plasma, 41° C. compared with 35° C. or 37° C.): incubation at 41 °C resulted in a higher hydrolysis rate | Cl/F_obs [7, 15]: 0.172 (mg)/(μg/ml)/h | MRT0-∞ [7, 15]: 5 h | Cl/F_obs [7, 16]: 0.043 (mg)/(μg/ml)/h | MRT0-∞ [7, 16]: 15 h | Cl/F_obs [8, 17]: 0.102 (mg)/(μg/ml)/h | MRT0-∞ [8, 17]: 9 h | Cl/F_obs ([8]; Human female A plasma 37° C.): 0.125 (mg)/(μg/ml)/h | MRT0-∞ ([8]; Human female A plasma 37° C.): 8 h | Cl/F_obs ([8]; Human female B plasma 37° C.): 0.136 (mg)/(μg/ml)/h | MRT0-∞ ([8]; Human female B plasma 37° C.): 9 h | Cl/F_obs ([8]; Human female C plasma 37° C.): 0.143 (mg)/(μg/ml)/h | MRT0-∞ ([8]; Human female C plasma 37° C.): 7 h | Cl/F_obs [8, 18]: 0.064 (mg)/(μg/ml)/h | MRT0-∞ [8, 18]: 14 h | Cl/F_obs ([8]; Human male A plasma 37° C.): 0.133 (mg)/(μg/ml)/h | MRT0-∞ ([8]; Human male A plasma 37° C.): 8 h | Cl/F_obs ([8]; Human male B plasma 37° C.): 0.148 (mg)/(μg/ml)/h | MRT0-∞ ([8]; Human male B plasma 37° C.): 7 h | Cl/F_obs ([8]; Human male C plasma 37° C.): 0.146 (mg)/(μg/ml)/h | MRT0-∞ ([8]; Human male C plasma 37° C.): 7 h | hydrolysis rate in different plasma types (in words) ([8]; rat, cynomolgus monkey and human plasma, 37° C.): comparable hydrolysis rate in most of the plasma samples; also recorded: very similar | Viscosity ([9]; 100 mM Acetate, 100 mM Sucrose, pH 4.7, 66 mg/ml): 20.41 cp | Viscosity ([9]; 100 mM Acetate, 100 mM Sucrose, pH 4.7, 72 mg/ml): 23.91 cp | Viscosity ([9]; 100 mM Acetate, 100 mM Sucrose, pH 4.7, 77 mg/ml): 26.08 cp | Viscosity ([9]; 100 mM Acetate, 100 mM Sucrose, pH 4.7, 80 mg/ml): 30.02 cp | Viscosity ([9]; 100 mM Acetate, 100 mM Sucrose, pH 4.7, concentration 60 mg/ml (A280)): 17.48 cp | Viscosity ([9]; T = 0, 50 mM Acetate pH 4.7, 60 mg/mL): 19.7 cP | Viscosity ([9]; T = 0, 50 mM Acetate pH 4.7, 70 mg/mL): 29.2 cP | Viscosity ([9]; T = 0, 50 mM Acetate pH 4.7, 80 mg/mL): 43.6 cP | Viscosity ([9]; T = 0, 50 mM Acetate pH 4.7, 100 mg/mL): 79.2 cP | Viscosity ([9]; T = 0, 50 mM Acetate pH 4.7, theoretical concentration 50 mg/mL): 12.9 cP | Viscosity ([9]; T = 0, 100 mM Acetate pH 4.7, 50 mg/mL): 12.9 cP | Viscosity ([9]; T = 0, 100 mM Acetate pH 4.7, 60 mg/mL): 20.8 cP | Viscosity ([9]; T = 0, 100 mM Acetate pH 4.7, 70 mg/mL): 32.9 cP | Viscosity ([9]; T = 0, 100 mM Acetate pH 4.7, 80 mg/mL): 48.7 cP | Viscosity ([9]; T = 0, 100 mM Acetate pH 4.7, 100 mg/mL): 87.4 cP | Viscosity ([9]; T = 24 hrs, 50 mM Acetate pH 4.7, 50 mg/mL): 12.2 cP | Viscosity ([9]; T = 24 hrs, 50 mM Acetate pH 4.7, 60 mg/mL): 19.4 cP | Viscosity ([9]; T = 24 hrs, 50 mM Acetate pH 4.7, 70 mg/mL): 28.3 cP | Viscosity ([9]; T = 24 hrs, 100 mM Acetate pH 4.7, 50 mg/mL): 12.8 cP | Viscosity ([9]; T = 24 hrs, 100 mM Acetate pH 4.7, 60 mg/mL): 20.4 cP | Viscosity ([9]; T = 24 hrs, 100 mM Acetate pH 4.7, 70 mg/mL): 32.5 cP | Plasma concentration 24 hours following last injection of repeat dosing regimen (Day 33) ([10]; 1000 nmol/kg): 67.51 µg/mL | Plasma concentration 24 hours following single dose (Day 2) ([10]; 1000 nmol/kg): 51.57 µg/mL | Plasma concentration 24 hours following single dose (Day 2) ([10]; 3000 nmol/kg): 183.33 µg/mL | Plasma concentration 24 hours following last injection of repeat dosing regimen (Day 33) ([10]; 6000 nmol/kg): 493.60 µg/mL | degradation by DPPIV (in words) [11]: no degradation of OXM was observed

PEG30-EMCS-OXM: non-reversible form where N-(epsilon-Maleimidocaproyloxy)succinimide (EMCS) replaces Fmoc as linker
Final reduction changes in body weight (on day 33) compared to control (PEG-SH) [4, 14]: 2.4% | degradation by DPPIV (in words) [12]: no degradation of the conjugates was observed

PEG30-Fmoc-OXM (HSQGTFTSDYSKYLDSRRAQDFVQWLMNTKRNRNNIA; Oxyntomodulin PEG30 via Fmoc linker; UniProt P01275 53-89, looked up)
Final reduction changes in body weight (on day 33) compared to control (PEG-SH) [4, 14]: 5.1% | fasting glucose (in words) [4, 14]: significant improvement | reduction change in body weight compared to its pair-fed group ([4]; 6000 nmol/kg sc every four days, insignificant): 2.6% | terminal plasma lipidic profiles and fructosamine (in words) [4]: significant reduction | glucose profile, Day 30 OGTT (in words) [4]: significant improved glucose profile | glucose tolerance, day 2 OGTT (in words) [4]: significantly improved glucose tolerance

certolizumab pegol [Cimzia]
Break Loose Force [13]: 6.28 N | Glide Force [13]: 27.94 N
